This passage reports Kd results from patent US20260139055A1.

Numbering of substitutions follows the chain as printed. Numbers in names are those of the source.

Sequences and labels used below:
B1: wild-type canine IgGB (65) mAb (antibody, part only; not given: variable domains of unnamed mAb, not shown: another chain or arm of the molecule; small tags and cut ends)
constant: ASTTAPSVFPLAPSCGSTSGSTVALACLVSGYFPEPVTVSWNSGSLTSGVHTFPSVLQSSGLYSLSSMVTVPSSRWPSETFTCNVAHPASKTKVDKPVPKRENGRVPRPPDCPKCPAPEMLGGPSVFIFPPKPKDTLLIARTPEVTCVVVDLDPEDPEVQISWFVDGKQMQTAKTQPREEQFNGTYRVVSVLPIGHQDWLKGKQFTCKVNNKALPSPIERTISKARGQAHQPSVYVLPPSREELSKNTVSLTCLIKDFFPPDIDVEWQSNGQQEPESKYRTTPPQLDEDGSYFLYSKLSVDKSRWQRGDTFICAVMHEALHNHYTQESLSHSPGK
B2: canine IgGB (65) mAb with mutation D312E (antibody, part only; not given: Variable domains, not shown: another chain or arm of the molecule)
constant: B1 constant with D198E
B3: canine IgGB (65) mAb with mutation Q311I (antibody, part only; not given: variable domains of unnamed mAb, not shown: another chain or arm of the molecule)
constant: B1 constant with Q197I
B4: canine IgGB (65) mAb with mutation A426D (antibody, part only; not given: Variable domains, not shown: another chain or arm of the molecule)
constant: B1 constant with A314D
B5: canine IgGB (65) mAb with mutation Q311E (antibody, part only; not given: Variable domains, not shown: another chain or arm of the molecule)
constant: B1 constant with Q197E
B6: canine IgGB (65) mAb with mutation A426L (antibody, part only; not given: variable domains of unnamed mAb, not shown: another chain or arm of the molecule)
constant: B1 constant with A314L
B7: canine IgGB (65) mAb with mutation A426I (antibody, part only; not given: Variable domains, not shown: another chain or arm of the molecule)
constant: B1 constant with A314I
B8: canine IgGB (65) mAb with mutation Q311Y (antibody, part only; not given: variable domains of unnamed mAb, not shown: another chain or arm of the molecule)
constant: B1 constant with Q197Y
B9: canine IgGB (65) mAb with mutation T286S (antibody, part only; not given: Variable domains, not shown: another chain or arm of the molecule)
constant: B1 constant with T172S
B10: canine IgGB (65) mAb with mutation Q311S (antibody, part only; not given: variable domains of unnamed mAb, not shown: another chain or arm of the molecule)
constant: B1 constant with Q197S
B11: canine IgGB (65) mAb with mutation D312C (antibody, part only; not given: variable domains of unnamed mAb, not shown: another chain or arm of the molecule)
constant: B1 constant with D198C
B12: canine IgGB (65) mAb with mutation D312L (antibody, part only; not given: Variable domains, not shown: another chain or arm of the molecule)
constant: B1 constant with D198L
B13: canine IgGB (65) mAb with mutation T286D (antibody, part only; not given: Variable domains, not shown: another chain or arm of the molecule)
constant: B1 constant with T172D
B14: canine IgGB (65) mAb with mutation Q311C (antibody, part only; not given: Variable domains, not shown: another chain or arm of the molecule)
constant: B1 constant with Q197C
B15: canine IgGB (65) mAb with mutation D312H (antibody, part only; not given: Variable domains, not shown: another chain or arm of the molecule)
constant: B1 constant with D198H
B16: canine IgGB (65) mAb with mutation Q311D (antibody, part only; not given: Variable domains, not shown: another chain or arm of the molecule)
constant: B1 constant with Q197D
B17: canine IgGB (65) mAb with mutation D312W (antibody, part only; not given: Variable domains, not shown: another chain or arm of the molecule)
constant: B1 constant with D198W
B18: canine IgGB (65) mAb with mutation Q311G (antibody, part only; not given: Variable domains, not shown: another chain or arm of the molecule)
constant: B1 constant with Q197G
B19: canine IgGB (65) mAb with mutation A426N (antibody, part only; not given: Variable domains, not shown: another chain or arm of the molecule)
constant: B1 constant with A314N
B20: canine IgGB (65) mAb with mutation D312F (antibody, part only; not given: Variable domains, not shown: another chain or arm of the molecule)
constant: B1 constant with D198F
B21: canine IgGB (65) mAb with mutation D312M (antibody, part only; not given: Variable domains, not shown: another chain or arm of the molecule)
constant: B1 constant with D198M
B22: canine IgGB (65) mAb with mutation Q311R (antibody, part only; not given: Variable domains, not shown: another chain or arm of the molecule)
constant: B1 constant with Q197R
B23: canine IgGB (65) mAb with mutation A426M (antibody, part only; not given: Variable domains, not shown: another chain or arm of the molecule)
constant: B1 constant with A314M
B24: canine IgGB (65) mAb with mutation Q311K (antibody, part only; not given: Variable domains, not shown: another chain or arm of the molecule)
constant: B1 constant with Q197K
B25: canine IgGB (65) mAb with mutation D312S (antibody, part only; not given: variable domains of unnamed mAb, not shown: another chain or arm of the molecule)
constant: B1 constant with D198S
B26: canine IgGB (65) mAb with mutation A426K (antibody, part only; not given: Variable domains, not shown: another chain or arm of the molecule)
constant: B1 constant with A314K
B27: canine IgGB (65) mAb with mutation Q311F (antibody, part only; not given: Variable domains, not shown: another chain or arm of the molecule)
constant: B1 constant with Q197F
B28: canine IgGB (65) mAb with mutation T286C (antibody, part only; not given: variable domains of unnamed mAb, not shown: another chain or arm of the molecule)
constant: B1 constant with T172C
B29: canine IgGB (65) mAb with mutation Q311T (antibody, part only; not given: Variable domains, not shown: another chain or arm of the molecule)
constant: B1 constant with Q197T
B30: canine IgGB (65) mAb with mutation Q311H (antibody, part only; not given: variable domains of unnamed mAb, not shown: another chain or arm of the molecule)
constant: B1 constant with Q197H
B31: canine IgGB (65) mAb with mutation T286P (antibody, part only; not given: Variable domains, not shown: another chain or arm of the molecule)
constant: B1 constant with T172P
B32: canine IgGB (65) mAb with mutation T286N (antibody, part only; not given: Variable domains, not shown: another chain or arm of the molecule)
constant: B1 constant with T172N
B33: canine IgGB (65) mAb with mutation D312N (antibody, part only; not given: Variable domains, not shown: another chain or arm of the molecule)
constant: B1 constant with D198N
B34: canine IgGB (65) mAb with mutation D312I (antibody, part only; not given: Variable domains, not shown: another chain or arm of the molecule)
constant: B1 constant with D198I
B35: canine IgGB (65) mAb with mutation A426C (antibody, part only; not given: Variable domains, not shown: another chain or arm of the molecule)
constant: B1 constant with A314C
B36: canine IgGB (65) mAb with mutation Q311P (antibody, part only; not given: variable domains of unnamed mAb, not shown: another chain or arm of the molecule)
constant: B1 constant with Q197P
B37: canine IgGB (65) mAb with mutation T286R (antibody, part only; not given: Variable domains, not shown: another chain or arm of the molecule)
constant: B1 constant with T172R
B38: canine IgGB (65) mAb with mutation D312A (antibody, part only; not given: variable domains of unnamed mAb, not shown: another chain or arm of the molecule)
constant: B1 constant with D198A
B39: canine IgGB (65) mAb with mutation T286H (antibody, part only; not given: variable domains of unnamed mAb, not shown: another chain or arm of the molecule)
constant: B1 constant with T172H
B40: canine IgGB (65) mAb with mutation D312R (antibody, part only; not given: variable domains of unnamed mAb, not shown: another chain or arm of the molecule)
constant: B1 constant with D198R
B41: canine IgGB (65) mAb with mutation D312T (antibody, part only; not given: Variable domains, not shown: another chain or arm of the molecule)
constant: B1 constant with D198T
B42: canine IgGB (65) mAb with mutation Q311N (antibody, part only; not given: variable domains of unnamed mAb, not shown: another chain or arm of the molecule)
constant: B1 constant with Q197N
B43: canine IgGB (65) mAb with mutation T286E (antibody, part only; not given: Variable domains, not shown: another chain or arm of the molecule)
constant: B1 constant with T172E
B44: canine IgGB (65) mAb with mutation D312K (antibody, part only; not given: variable domains of unnamed mAb, not shown: another chain or arm of the molecule)
constant: B1 constant with D198K
B45: canine IgGB (65) mAb with mutation T286Q (antibody, part only; not given: Variable domains, not shown: another chain or arm of the molecule)
constant: B1 constant with T172Q
B46: canine IgGB (65) mAb with mutation A426G (antibody, part only; not given: variable domains of unnamed mAb, not shown: another chain or arm of the molecule)
constant: B1 constant with A314G
B47: canine IgGB (65) mAb with mutation Q311L (antibody, part only; not given: Variable domains, not shown: another chain or arm of the molecule)
constant: B1 constant with Q197L
B48: canine IgGB (65) mAb with mutation Q311W (antibody, part only; not given: variable domains of unnamed mAb, not shown: another chain or arm of the molecule)
constant: B1 constant with Q197W
B49: canine IgGB (65) mAb with mutation Q311M (antibody, part only; not given: Variable domains, not shown: another chain or arm of the molecule)
constant: B1 constant with Q197M
B50: canine IgGB (65) mAb with mutation D312Y (antibody, part only; not given: variable domains of unnamed mAb, not shown: another chain or arm of the molecule)
constant: B1 constant with D198Y
B51: canine IgGB (65) mAb with mutation D312V (antibody, part only; not given: variable domains of unnamed mAb, not shown: another chain or arm of the molecule)
constant: B1 constant with D198V
B52: canine IgGB (65) mAb with mutation A426E (antibody, part only; not given: Variable domains, not shown: another chain or arm of the molecule)
constant: B1 constant with A314E
B53: canine IgGB (65) mAb with mutation D312Q (antibody, part only; not given: Variable domains, not shown: another chain or arm of the molecule)
constant: B1 constant with D198Q
B54: canine IgGB (65) mAb with mutation D312G (antibody, part only; not given: Variable domains, not shown: another chain or arm of the molecule)
constant: B1 constant with D198G
B55: canine IgGB (65) mAb with mutation T286G (antibody, part only; not given: Variable domains, not shown: another chain or arm of the molecule)
constant: B1 constant with T172G
B56: canine IgGB (65) mAb with mutation T286V (antibody, part only; not given: variable domains of unnamed mAb, not shown: another chain or arm of the molecule)
constant: B1 constant with T172V

The target in the assay is canine FcRn complex (FcRn-alpha subunit and beta-microglobulin), His-tagged, biotin labeled (canine). In words: SPR (Biacore), biotin-FcRn captured on SA surface, IgG flowed over, pH 6, 15 C. A general note: Surface plasmon resonance follows binding to a sensor surface in real time, without labels.
As for B1, the Kd – broadly, the concentration at which binding is half-saturated – turned out to be 30.7 nM.
As for B2, the equilibrium dissociation constant (Kd) was found to be 14.1 nM.
B3 returned a Kd of 7.94 nM.
B4: the Kd worked out at 14.9 nM.
Take B5: the Kd came out at 9.39 nM.
Turning to B6, the Kd amounted to 5.17 nM.
With B7 the figure was 8.54 nM.
Molecule B8 showed a Kd of 2.61 nM.
Under B9 stands 6.68 nM.
Molecule B10 gave a dissociation constant Kd of 8.7 nM.
With B11 the figure was 19 nM; with B12, 12.1 nM; with B13, 6.83 nM.
The molecule B14 came in with a Kd of 10.3 nM.
B15 came in with a Kd of 9.72 nM.
B16 showed an equilibrium dissociation constant (Kd) of 13.3 nM.
For B17, the Kd worked out at 14.4 nM.
The molecule B18 yielded a Kd of 8.42 nM.
Take B19: the Kd came out at 5.33 nM.
Molecule B20 returned a Kd of 21.9 nM.
With B21, the dissociation constant (Kd) was found to be 16.2 nM.
The molecule B22 came in with a Kd of 15.2 nM.
For B23, the equilibrium dissociation constant (Kd) was determined as 8.84 nM.
Under B24 stands 6.23 nM.
Molecule B25 yielded a Kd of 14.8 nM.
The molecule B26 came in with a Kd of 3.81 nM.
Molecule B27 gave a Kd of 33 nM.
As to B28, the Kd was 8.19 nM.
Consider B29, for which the Kd turned out to be 10.7 nM.
Take B30: the Kd was 6.66 nM.
With B31 the figure was 6.73 nM.
B32 returned a Kd of 6.32 nM.
B33: the Kd is 17.1 nM.
In turn, B34 displayed a Kd of 21.5 nM.
B35 showed a Kd of 8.86 nM.
As for B36, the Kd is 21.2 nM.
B37 gave a Kd of 4.73 nM.
The molecule B38 returned a Kd of 10.3 nM.
Turning to B39, the Kd worked out at 5.07 nM.
B40: the Kd was 23.1 nM.
Regarding B41, the Kd stood at 10.6 nM.
In turn, B42 returned a Kd of 10.1 nM.
Take B43: the Kd was 8.66 nM.
The molecule B44 came in with a Kd of 24 nM.
The molecule B45 returned a Kd of 8.58 nM.
As for B46, the Kd was determined as 7.36 nM.
Molecule B47 displayed a Kd of 19.1 nM.
B48 gave a Kd of 2.49 nM.
As for B49, the dissociation constant Kd was found to be 13.1 nM.
With B50 the figure was 25.1 nM.
Consider B51, for which the Kd came out at 14.1 nM.
As to B52, the Kd came to 4.77 nM.
As to B53, the Kd worked out at 9.97 nM.
Under B54 stands 26.8 nM.
Regarding B55, the Kd stood at 6.48 nM.
For B56, the dissociation constant (Kd) worked out at 8.36 nM.
